Laboratory results: US20240309103A1

Columns and labels:
[1] = molecular target: mNPR1-mFc:hBNP complex (mouse; human) (UniProt P16860); test: SPR Biacore, mAb captured by anti-human Fc, 37C
[2] = molecular target: mNPR1-mFc:hANP complex (mouse; human) (UniProt P01160); test: SPR Biacore, mAb captured by anti-human Fc, 37C
[3] = molecular target: human NPR1 on HEK293/hNPR1.myc.DDK cells (0 hANP) (human) (UniProt P16066); test: ECL cell binding (MSD), 0 hANP
[4] = molecular target: mNPR1-mFc:hBNP complex (mouse; human) (UniProt P16860); test: SPR Biacore, mAb captured by anti-human Fc, 25C
[5] = molecular target: mNPR1-mFc:hANP complex (mouse; human) (UniProt P01160); test: SPR Biacore, mAb captured by anti-human Fc, 25C
[6] = molecular target: human NPR1 on HEK293/hNPR1.myc.DDK cells (no hANP added) (human) (UniProt P16066); test: cell-based or functional assay
[7] = molecular target: human NPR1 on HEK293/hNPR1.myc.DDK cells (0 hANP) (human) (UniProt P16066); test: cell-based or functional assay
[8] = molecular target: mNPR1-mFc:hBNP complex (mouse; human) (UniProt P16860); test: SPR Biacore, mAb captured by anti-human Fc, 37C; kinetics IC* (inconclusive)
[9] = molecular target: mNPR1-mFc:hANP complex (mouse; human) (UniProt P01160); test: as above

human NPR1 on HEK293/hNPR1.myc.DDK cells (0 hANP) (human), sequence (P16066 33-1061): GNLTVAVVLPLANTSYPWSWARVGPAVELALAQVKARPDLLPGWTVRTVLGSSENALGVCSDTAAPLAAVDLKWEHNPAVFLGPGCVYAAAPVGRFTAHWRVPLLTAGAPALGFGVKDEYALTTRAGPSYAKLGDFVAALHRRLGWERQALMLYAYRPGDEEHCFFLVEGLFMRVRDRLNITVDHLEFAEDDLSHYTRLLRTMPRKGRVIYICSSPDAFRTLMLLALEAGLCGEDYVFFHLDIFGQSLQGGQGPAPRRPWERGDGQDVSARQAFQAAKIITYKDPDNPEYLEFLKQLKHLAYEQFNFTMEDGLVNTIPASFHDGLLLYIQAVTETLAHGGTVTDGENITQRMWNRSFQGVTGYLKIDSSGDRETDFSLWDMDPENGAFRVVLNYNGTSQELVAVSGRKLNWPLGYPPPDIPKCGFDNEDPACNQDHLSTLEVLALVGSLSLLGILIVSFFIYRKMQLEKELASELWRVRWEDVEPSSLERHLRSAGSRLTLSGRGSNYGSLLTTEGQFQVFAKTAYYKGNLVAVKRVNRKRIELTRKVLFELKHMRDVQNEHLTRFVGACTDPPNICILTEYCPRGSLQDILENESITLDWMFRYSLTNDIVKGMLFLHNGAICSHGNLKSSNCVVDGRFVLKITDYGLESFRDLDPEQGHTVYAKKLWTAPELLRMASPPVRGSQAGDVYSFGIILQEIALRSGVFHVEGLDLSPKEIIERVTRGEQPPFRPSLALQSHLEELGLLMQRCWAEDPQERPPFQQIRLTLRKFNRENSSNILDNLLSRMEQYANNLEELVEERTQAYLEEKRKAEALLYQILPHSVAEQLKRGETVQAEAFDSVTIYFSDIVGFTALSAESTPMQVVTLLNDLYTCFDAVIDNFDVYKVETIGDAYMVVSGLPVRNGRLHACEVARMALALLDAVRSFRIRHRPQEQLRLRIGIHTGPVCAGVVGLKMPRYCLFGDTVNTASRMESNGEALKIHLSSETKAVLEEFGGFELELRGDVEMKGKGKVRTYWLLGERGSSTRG
human NPR1 on HEK293/hNPR1.myc.DDK cells (no hANP added) (human), sequence (P16066 33-1061): as above

B1: mAb25502 (antibody, human IgG4, V domains shown)
VH: QLQLQESGPGLVKPSETLSLTCTVSGGSISSSSYYWGWIRQPPGKGLEWIGSIYYSGSPYYIPSLKSRVTISVDTSKNQFSLKLSSVTAADTAMYYCARQGRGIARAGPFDYWGQGTLVTVSS
VL: DIQMTQSPSSLSASVGDRVTITCRASQGISNYLAWYQEKPGKVPKLLIYAASTLQSGVPSRFSGSGSGTDFTLTITSLQSEDVATYYCQKYNSAPPWTFGQGTKVEIK
Question: For B1, which 100 nM Ag Bound (RU) [1] is on record?
Answer: 34 RU

Question: What about the Kd [1] of the same binder?
Answer: 342 nM

Question: And the koff [1]?
Answer: 0.0998 s⁻¹

Question: What about the kon [1] of the same binder?
Answer: 291000 M⁻¹ s⁻¹

Question: And the t½ [1]?
Answer: 7.2 s

Question: What about the 100 nM Ag Bound (RU) [2] of the same binder?
Answer: 35 RU

Question: What about the Kd [2] of the same binder?
Answer: 334 nM

Question: What about the koff [2] of the same binder?
Answer: 0.0883 s⁻¹

Question: And the kon [2]?
Answer: 264000 M⁻¹ s⁻¹

Question: And the t½ [2]?
Answer: 7.8 s

Question: What about the Ratio at 3.7 nM Ab concentration of Cell Binding Signal (RLU) to HEK293/hNPR1.myc.DKK relative to parental HEK293 [3] of the same binder?
Answer: 1

Question: What about the 100 nM Ag Bound (RU) [4] of the same binder?
Answer: 25 RU

Question: And the Kd [4]?
Answer: 215 nM

Question: What about the koff [4] of the same binder?
Answer: 0.0503 s⁻¹

Question: What about the kon [4] of the same binder?
Answer: 234000 M⁻¹ s⁻¹

Question: What about the t½ [4] of the same binder?
Answer: 13.8 s

Question: And the 100 nM Ag Bound (RU) [5]?
Answer: 25 RU

Question: And the Kd [5]?
Answer: 337 nM

Question: And the koff [5]?
Answer: 0.0799 s⁻¹

Question: And the kon [5]?
Answer: 237000 M⁻¹ s⁻¹

Question: What about the t½ [5] of the same binder?
Answer: 8.4 s

Question: And the EC50 of Ca2+ flux activation, Expt II [6]?
Answer: > 200 nM

Question: And the % Activation (vs ANP max), Expt 1 [7]?
Answer: 92.9%

Question: And the % Activation (vs. ANP max), Expt II [7]?
Answer: 110%

Question: What about the EC50 (nM), calcium flux, Expt 1 [7] of the same binder?
Answer: 161 nM

Question: And the EC50 (nM), calcium flux, Expt II [7]?
Answer: > 200 nM

B2: mAb22805 (antibody, human IgG4, V domains shown)
VH: QVQLVESGGGVVQPGRSLRLSCAASGFTFSTYGMHWVRQAPGKGLEWVALIWNDGSNKYYADSVKGRFTISRDNSKNTLDLQMNSLRAEDTAVYYCARLNTRITGTTNLDYWGQGTLVTVSS
VL: DIQMTQSPSSLSASVGDRVTVSCRASQSIANYLNWYQQKPGKAPNLLIYGAYTLQSGVPSRFRGSGSGTDFTLTISSLQPEDFATYYCQQTYSTPPITFGQGTRLEIK
Question: Which 100 nM Ag Bound (RU) [8] does the source give for B2 here?
Answer: 17 RU

Question: What about the 100 nM Ag Bound (RU) [9] of the same binder?
Answer: 15 RU

Question: What about the 100 nM Ag Bound (RU) [4] of the same binder?
Answer: 21 RU

Question: And the Kd [4]?
Answer: 445 nM

Question: And the koff [4]?
Answer: 0.0682 s⁻¹

Question: And the kon [4]?
Answer: 153000 M⁻¹ s⁻¹

Question: And the t½ [4]?
Answer: 10.2 s

Question: What about the 100 nM Ag Bound (RU) [5] of the same binder?
Answer: 18 RU

Question: What about the Kd [5] of the same binder?
Answer: 424 nM

Question: And the koff [5]?
Answer: 0.0839 s⁻¹

Question: What about the kon [5] of the same binder?
Answer: 198000 M⁻¹ s⁻¹

Question: And the t½ [5]?
Answer: 8.4 s

B3: mAb22809 (antibody, human IgG4, V domains shown)
VH: QLQLRESGPGLVKPSETLSLTCTVSGGSINDNSFFWDWIRQTPGRGLEWIGNIFFDGNTYYTPSLKSRVIISVDMSQNQFSLRLTSVTAADTALYYCARHKRSMTAWGFFDYWGQGTLVTVSS
VL: DIQMTQSPSSLSASVGDRVTITCRASKRINTYLNWYQQKPGKAPKVLIYSASNLQSGVPSRFSGSGSGTDFTLTINSLQPEDFATYFCQQSFSAPPITFGQGTRLEIK
Question: For B3, which 100 nM Ag Bound (RU) [1] is on record?
Answer: 1 RU

Question: What about the 100 nM Ag Bound (RU) [2] of the same binder?
Answer: 1 RU

Question: What about the 100 nM Ag Bound (RU) [4] of the same binder?
Answer: 1 RU

Question: And the 100 nM Ag Bound (RU) [5]?
Answer: 0 RU

B4: mAb25491 (antibody, human IgG4, V domains shown)
VH: QVQLVQSGAEVMKPGASVKVSCKASGYTFTGYYIHWVRQAPGQGLEWMGWITPNSGATNYAQKFQGRVTLTRDTSISTAYMELTRLKSDDTAVYYCARGGQLEFFYYYYGMDVWGQGTTVTVSS
VL: DIQMTQSPSSLSASAGDRVTITCRASQSIDSYLNWYQQKPGKAPKLLISATSGFQSGVPSRFSGSGSGTDFTLTISSLQPEDFGTYYCQQSYTTPITFGQGTRLEIK
Question: What does the source list for B4?
Answer: 100 nM Ag Bound (RU) [1]: 4 RU; 100 nM Ag Bound (RU) [2]: 1 RU; 100 nM Ag Bound (RU) [4]: 5 RU; 100 nM Ag Bound (RU) [5]: 1 RU

B5: mAb25497 (antibody, human IgG4, V domains shown)
VH: QVQLVQSGAEVKEPGASVKVSCKASGYTFTDYYIHWVRQAPGQGLEWMGWINLNSGGKNHAQKFQGRVTVTSDTSINTAYIELGRLRGDDTAVYYCSRGGGSHYYYYYHGMDVWGQGTTVTVSS
VL: DIQMTQSPSSLSASVGDRITITCRASHSIDSYLNWYQQKPGKAPKLLIYPASTLQSGVPSRFSGSGSGTDFTLTISSLQPEDSAIYYCQQSYSTPLTFGGGTKVEIK
Question: What does the source list for B5?
Answer: 100 nM Ag Bound (RU) [1]: 2 RU; 100 nM Ag Bound (RU) [2]: 1 RU; 100 nM Ag Bound (RU) [4]: 2 RU; 100 nM Ag Bound (RU) [5]: 1 RU

B6: mAb25508 (antibody, human IgG4, V domains shown)
VH: EVQLVESGGGVVRPGGSLRLSCAASGFNVDDYGMSWVRQIPGKGLEWISGINWNGGRIYYADSMKGRITISRDNAKNSLYLQMNSLRAEDTALYHCVRDQWLVRGLDYWGQGTLVTVSS
VL: DIQMTQSPSSLSASVGDRVTITCRASQGIYNYLAWFQQKPGKAPKSLIYAASSLQSGVPSKFSGSGSGTDFTLTISSLQPEDFATYYCQQYNTYPYTFGQGTKLEIK
Question: What does the source list for B6?
Answer: 100 nM Ag Bound (RU) [1]: 1 RU; 100 nM Ag Bound (RU) [2]: 0 RU; 100 nM Ag Bound (RU) [4]: 1 RU; 100 nM Ag Bound (RU) [5]: 0 RU

B7: mAb22033 (antibody, human IgG4, V domains shown)
VH: QVQLVQSGAEVKKPGASVTVSCKASGYTFTDYYMHWVRQAPGQGLEWMGWIKPNSGGTNSAQRFQGRITMTWDTSISTAYMELSRLRSDDTAVYYCSRGGPVMNYYYYYGMDVWGQGTTVTVSS
VL: NIQMTQSPSSLSASVGDRVTITCRASQSIDSYLNWYQQKPGKAPKLLIYVASSLQSGVPSRFSGSGSGKDFTLTISSLQPEDFATYYCQQSYSIPTFGQGTRLEIK
Question: How did the 100 nM Ag Bound (RU) [1] turn out when B7 was run?
Answer: 4 RU

Question: What about the 100 nM Ag Bound (RU) [2] of the same binder?
Answer: 2 RU

Question: What about the 100 nM Ag Bound (RU) [4] of the same binder?
Answer: 5 RU

Question: What about the 100 nM Ag Bound (RU) [5] of the same binder?
Answer: 1 RU

B8: mAb22035 (antibody, human IgG4, V domains shown)
VH: EVQLVESGGGLVQPGRSLRLSCAASGFTFDDYAMHWVRQAPGKGLEWVSGISWNSGTIGYADSVKGRFTMSRDNAKNSLYLQMNSLRPEDTALYYCAKDMGVSLALWGAFDIWGQGTMVTVSS
VL: DIQMTQSPSSLSASVGDKVTITCRASQNIRTYLNWYQQKPGKAPKVLISTASSLQSGVPSRFSGSGSGTDFTLTISSLQPEDFAVFYCQQSFGIPRTFGQGTKVEIK
Question: B8 was tested. Which 100 nM Ag Bound (RU) [1] did it give?
Answer: 1 RU

Question: And the 100 nM Ag Bound (RU) [2]?
Answer: 1 RU

Question: And the 100 nM Ag Bound (RU) [4]?
Answer: 0 RU

Question: What about the 100 nM Ag Bound (RU) [5] of the same binder?
Answer: 0 RU
